Experimental data: patent US20230250154A1 (CYTONICS, published 2023)

T1: ADAMTS4 (human, UniProt O75173 213-685, limits assumed)
T1 sequence (looked up): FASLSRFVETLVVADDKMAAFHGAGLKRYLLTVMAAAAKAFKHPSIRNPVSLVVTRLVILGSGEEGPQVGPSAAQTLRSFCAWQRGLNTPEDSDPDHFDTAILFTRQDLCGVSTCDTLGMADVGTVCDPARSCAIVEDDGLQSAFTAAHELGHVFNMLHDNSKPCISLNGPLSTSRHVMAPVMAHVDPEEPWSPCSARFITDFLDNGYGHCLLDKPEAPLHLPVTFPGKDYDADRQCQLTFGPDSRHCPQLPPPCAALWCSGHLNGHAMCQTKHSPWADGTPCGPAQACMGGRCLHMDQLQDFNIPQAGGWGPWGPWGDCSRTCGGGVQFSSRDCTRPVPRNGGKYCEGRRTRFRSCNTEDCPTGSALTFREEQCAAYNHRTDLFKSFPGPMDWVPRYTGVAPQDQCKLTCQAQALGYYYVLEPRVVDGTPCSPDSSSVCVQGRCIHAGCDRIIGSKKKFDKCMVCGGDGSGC

T2: ADAMTS5 (human, UniProt Q9UNA0 262-622, limits assumed)
T2 sequence (looked up): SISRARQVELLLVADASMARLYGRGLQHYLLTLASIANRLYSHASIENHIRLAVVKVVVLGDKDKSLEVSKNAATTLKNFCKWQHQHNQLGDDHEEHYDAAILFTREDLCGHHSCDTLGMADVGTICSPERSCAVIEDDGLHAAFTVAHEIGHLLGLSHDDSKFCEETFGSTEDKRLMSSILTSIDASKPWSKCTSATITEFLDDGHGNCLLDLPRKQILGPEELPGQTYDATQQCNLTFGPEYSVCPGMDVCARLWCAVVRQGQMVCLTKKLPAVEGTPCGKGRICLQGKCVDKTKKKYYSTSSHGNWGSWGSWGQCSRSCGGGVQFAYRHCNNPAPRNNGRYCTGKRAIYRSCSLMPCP

T3: MMP1 (human, UniProt P03956 100-469, limits assumed)
T3 sequence (looked up): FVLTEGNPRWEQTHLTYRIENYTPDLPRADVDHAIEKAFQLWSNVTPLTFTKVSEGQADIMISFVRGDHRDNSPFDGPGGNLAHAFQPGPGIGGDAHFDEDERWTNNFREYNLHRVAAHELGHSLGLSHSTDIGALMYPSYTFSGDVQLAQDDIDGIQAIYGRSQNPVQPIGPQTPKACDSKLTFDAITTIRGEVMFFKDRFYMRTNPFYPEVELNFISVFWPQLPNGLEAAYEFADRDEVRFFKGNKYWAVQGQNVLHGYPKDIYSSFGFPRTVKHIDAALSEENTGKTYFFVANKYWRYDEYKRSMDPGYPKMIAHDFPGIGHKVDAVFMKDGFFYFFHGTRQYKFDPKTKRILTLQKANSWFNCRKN

T4: MMP2 (human, UniProt P08253 110-660, limits assumed)
T4 sequence (looked up): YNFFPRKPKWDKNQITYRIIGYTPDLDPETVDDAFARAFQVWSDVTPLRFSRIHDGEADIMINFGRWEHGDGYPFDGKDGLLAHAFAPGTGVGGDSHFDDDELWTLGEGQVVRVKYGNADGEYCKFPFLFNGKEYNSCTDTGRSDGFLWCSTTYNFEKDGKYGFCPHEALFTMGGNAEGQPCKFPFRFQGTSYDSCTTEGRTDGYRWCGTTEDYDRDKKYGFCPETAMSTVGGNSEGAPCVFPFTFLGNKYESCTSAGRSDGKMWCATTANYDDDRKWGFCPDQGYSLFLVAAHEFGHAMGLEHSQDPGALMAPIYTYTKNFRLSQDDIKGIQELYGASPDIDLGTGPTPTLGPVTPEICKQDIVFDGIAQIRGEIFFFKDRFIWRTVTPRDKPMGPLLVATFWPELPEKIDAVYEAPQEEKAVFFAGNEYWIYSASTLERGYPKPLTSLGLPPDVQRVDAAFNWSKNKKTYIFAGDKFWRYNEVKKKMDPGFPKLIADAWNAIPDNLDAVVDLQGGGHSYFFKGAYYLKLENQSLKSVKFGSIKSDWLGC

T5: Cathepsin G (UniProt P08311 21-244)
T5 sequence (looked up): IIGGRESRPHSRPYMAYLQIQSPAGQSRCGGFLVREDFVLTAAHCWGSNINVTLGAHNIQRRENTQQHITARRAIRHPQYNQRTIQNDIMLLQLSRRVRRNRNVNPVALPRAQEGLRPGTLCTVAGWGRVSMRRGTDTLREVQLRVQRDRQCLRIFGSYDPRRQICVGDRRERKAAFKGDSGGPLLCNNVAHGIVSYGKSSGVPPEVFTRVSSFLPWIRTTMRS


Columns and labels:
Assay in all cases: cell-based or functional assay
ADAMTS4 = target: T1, ADAMTS4
ADAMTS5 = target: T2, ADAMTS5
MMP1 = target: T3, MMP1
MMP8 = MMP8 (human, UniProt P22894 101-467, limits assumed)
MMP13 = MMP13 (human, UniProt P45452 104-471, limits assumed)
MMP2 = target: T4, MMP2
MMP9 = MMP9 (human, UniProt P14780 107-707, limits assumed)
MMP3 = MMP3 (human, UniProt P08254 100-477, limits assumed)
Elastase = target: Elastase
Cathepsin G = target: T5, Cathepsin G
MMP12 = MMP12 (human, UniProt P39900 106-470, limits assumed)
MMP12, sequence (P39900 106-470 limits assumed): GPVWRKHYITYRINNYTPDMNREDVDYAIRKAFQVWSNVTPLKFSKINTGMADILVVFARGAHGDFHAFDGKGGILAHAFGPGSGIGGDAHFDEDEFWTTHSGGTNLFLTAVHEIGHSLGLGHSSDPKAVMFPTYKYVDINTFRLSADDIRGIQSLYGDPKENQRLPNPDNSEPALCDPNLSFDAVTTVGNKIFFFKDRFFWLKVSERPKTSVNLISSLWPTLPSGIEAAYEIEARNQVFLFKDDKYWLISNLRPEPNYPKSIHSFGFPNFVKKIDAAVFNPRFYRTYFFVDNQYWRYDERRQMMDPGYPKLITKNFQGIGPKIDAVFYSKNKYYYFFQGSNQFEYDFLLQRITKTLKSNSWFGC

MMP9, sequence (P14780 107-707 limits assumed): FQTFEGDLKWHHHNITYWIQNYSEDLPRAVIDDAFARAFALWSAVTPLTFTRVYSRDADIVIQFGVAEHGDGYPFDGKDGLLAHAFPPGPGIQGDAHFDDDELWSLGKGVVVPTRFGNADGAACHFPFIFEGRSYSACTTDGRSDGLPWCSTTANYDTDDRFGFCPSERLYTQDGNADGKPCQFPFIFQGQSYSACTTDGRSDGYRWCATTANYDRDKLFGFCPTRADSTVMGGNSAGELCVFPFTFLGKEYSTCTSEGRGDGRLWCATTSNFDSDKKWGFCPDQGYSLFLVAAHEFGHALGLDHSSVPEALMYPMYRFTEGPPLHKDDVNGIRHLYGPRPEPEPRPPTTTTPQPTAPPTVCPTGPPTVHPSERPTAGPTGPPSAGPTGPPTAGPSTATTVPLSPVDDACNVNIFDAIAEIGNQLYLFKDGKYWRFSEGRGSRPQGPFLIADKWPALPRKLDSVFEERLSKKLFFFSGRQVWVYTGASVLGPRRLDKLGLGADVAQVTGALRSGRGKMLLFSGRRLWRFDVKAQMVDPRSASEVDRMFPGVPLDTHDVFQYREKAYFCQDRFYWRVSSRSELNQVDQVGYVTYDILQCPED
MMP8, sequence (P22894 101-467 limits assumed): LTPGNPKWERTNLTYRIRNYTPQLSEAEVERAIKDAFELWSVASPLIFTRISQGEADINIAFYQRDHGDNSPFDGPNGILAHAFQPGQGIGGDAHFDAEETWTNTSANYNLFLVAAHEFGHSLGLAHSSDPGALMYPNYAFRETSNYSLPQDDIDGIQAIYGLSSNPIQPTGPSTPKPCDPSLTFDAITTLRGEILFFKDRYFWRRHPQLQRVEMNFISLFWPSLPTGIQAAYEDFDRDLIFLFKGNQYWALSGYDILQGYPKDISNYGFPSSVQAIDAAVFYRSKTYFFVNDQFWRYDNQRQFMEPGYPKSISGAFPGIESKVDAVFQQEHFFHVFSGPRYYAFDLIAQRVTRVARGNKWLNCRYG
MMP3, sequence (P08254 100-477 limits assumed): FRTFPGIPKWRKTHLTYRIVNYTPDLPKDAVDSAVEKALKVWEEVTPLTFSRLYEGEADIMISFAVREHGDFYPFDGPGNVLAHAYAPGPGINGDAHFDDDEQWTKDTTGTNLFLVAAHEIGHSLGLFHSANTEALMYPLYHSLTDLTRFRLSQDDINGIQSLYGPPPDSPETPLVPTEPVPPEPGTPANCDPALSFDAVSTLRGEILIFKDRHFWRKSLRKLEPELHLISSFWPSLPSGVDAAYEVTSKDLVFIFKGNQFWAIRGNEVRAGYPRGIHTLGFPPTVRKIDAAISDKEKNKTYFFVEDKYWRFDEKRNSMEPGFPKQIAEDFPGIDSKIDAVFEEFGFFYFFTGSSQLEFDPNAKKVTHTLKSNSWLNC

Protease Inhibition (% of WT) (ADAMTS4)	Protease Inhibition (% of WT) (ADAMTS5)	Protease Inhibition (% of WT) (MMP1)	Protease Inhibition (% of WT) (MMP8)	Protease Inhibition (% of WT) (MMP13)	Protease Inhibition (% of WT) (MMP2)	Protease Inhibition (% of WT) (MMP9)	Protease Inhibition (% of WT) (MMP3)	Protease Inhibition (% of WT) (Elastase)	Protease Inhibition (% of WT) (Cathepsin G)	Protease Inhibition (% of WT) (MMP12)	Binder
50 % of WT	400 % of WT	40 % of WT	20 % of WT	210 % of WT	110 % of WT	50 % of WT	50 % of WT				Variant A2M, bait region SEQ ID NO 100 (other) SVSGKPQYMVLVPSLLHTETTEKGCVLLSYLNETVTVSASLESVRGNRSLFTDLEAENDVLHCVAFAVPKSSSNEEVMFLTVQVKGPTQEFKKRTTVMVKNEDSLVFVQTDKSIYKPGQTVKFRVVSMDENFHPLNELIPLVYIQDPKGNRIAQWQSFQLEGGLKQFSFPLSSEPFQGSYKVVVQKKSGGRTEHPFTVEEFVLPKFEVQVTVPKIITILEEEMNVSVCGLYTYGKPVPGHVTVSICRKYSDASDCHGEDSQAFCEKFSGQLNSHGCFYQQVKTKVFQLKRKEYEMKLHTEAQIQEEGTVVELTGRQSSEITRTITKLSFVKVDSHFRQGIPFFGQVRLVDGKGVPIPNKVIFIRGNEANYYSNATTDEHGLVQFSINTTNVMGTSLTVRVNYKDRSPCYGYQWVSEEHEEAHHTAYLVFSPSKSFVHLEPMSHELPCGHTQTVQAHYILNGGTLLGLKKLSFYYLIMAKGGIVRTGTHGLLVKQEDMKGHFSISIPVKSDIAPVARLLIYAVLPTGDVIGDSAKYDVENCLANKVDLSFSPSQSLPASHAHLRVTAAPQSVCALRAVDQSVLLMKPDAELSASSVYNLLPEKDLTGFPGPLNDQDDEDCINRHNVYINGITYTPVSSTNEKDMYSFLEDMGLKAFTNSKIRKPKMCPQLEQYEMHGPEGLRVGGEPEGAKGFYESDVMGRGHARLVHVEEPHTKLLRKYFPETWIWDLVVVNSAGVAEVGVTVPDTITEWKAGAFCLSEDAGLGISSTASLRAFQPFFVELTMPYSVIRGEAFTLKATVLNYLPKCIRVSVQLEASPAFLAVPVEKEQAPHCICANGRQTVSWAVTPKSLGNVNFTVSAEALESQELCGTEVPSVPEHGRKDTVIKPLLVEPEGLEKETTFNSLLCPSGGEVSEELSLKLPPNVVEESARASVSVLGDILGSAMQNTQNLLQMPYGCGEQNMVLFAPNIYVLDYLNETQQLTPEIKSKAIGYLNTGYQRQLNYKHYDGSYSTFGERYGRNQGNTWLTAFVLKTFAQARAYIFIDEAHITQALIWLSQRQKDNGCFRSSGSLLNNAIKGGVEDEVTLSAYITIALLEIPLTVTHPVVRNALFCLESAWKTAQEGDHGSHVYTKALLAYAFALAGNQDKRKEVLKSLNEEAVKKDNSVHWERPQKPKAPVGHFYEPQAPSAEVEMTSYVLLAYLTAQPAPTSEDLTSATNIVKWITKQQNAQGGFSSTQDTVVALHALSKYGAATFTRTGKAAQVTIQSSGTFSSKFQVDNNNRLLLQQVSLPELPGEYSMKVTGEGCVYLQTSLKYNILPEKEEFPFALGVQTLPQTCDEPKAHTSFQISLSVSYTGSRSASNMAIVDVKMVSGFIPLKPTVKMLERSNHVSRTEVSSNHVLIYLDKVSNQTLSLFFTVLQDVPVRDLKPAIVKVYDYYETDEFAIAEYNAPCSKDLGNADYKDDDDKGASHHHHHH
		200 % of WT	300 % of WT		20 % of WT	300 % of WT		75 % of WT	250 % of WT	300 % of WT	Variant A2M, bait region SEQ ID NO 125 (other) SVSGKPQYMVLVPSLLHTETTEKGCVLLSYLNETVTVSASLESVRGNRSLFTDLEAENDVLHCVAFAVPKSSSNEEVMFLTVQVKGPTQEFKKRTTVMVKNEDSLVFVQTDKSIYKPGQTVKFRVVSMDENFHPLNELIPLVYIQDPKGNRIAQWQSFQLEGGLKQFSFPLSSEPFQGSYKVVVQKKSGGRTEHPFTVEEFVLPKFEVQVTVPKIITILEEEMNVSVCGLYTYGKPVPGHVTVSICRKYSDASDCHGEDSQAFCEKFSGQLNSHGCFYQQVKTKVFQLKRKEYEMKLHTEAQIQEEGTVVELTGRQSSEITRTITKLSFVKVDSHFRQGIPFFGQVRLVDGKGVPIPNKVIFIRGNEANYYSNATTDEHGLVQFSINTTNVMGTSLTVRVNYKDRSPCYGYQWVSEEHEEAHHTAYLVFSPSKSFVHLEPMSHELPCGHTQTVQAHYILNGGTLLGLKKLSFYYLIMAKGGIVRTGTHGLLVKQEDMKGHFSISIPVKSDIAPVARLLIYAVLPTGDVIGDSAKYDVENCLANKVDLSFSPSQSLPASHAHLRVTAAPQSVCALRAVDQSVLLMKPDAELSASSVYNLLPEKDLTGFPGPLNDQDDEDCINRHNVYINGITYTPVSSTNEKDMYSFLEDMGLKAFTNSKIRKPKMCPQLEQYEMHGPSELEGRGSIPENFFGVEAIPMSIPTSEDLVVQIVEEPHTKLRKYFPETWIWDLVVVNSAGVAEVGVTVPDTITEWKAGAFCLSEDAGLGISSTASLRAFQPFFVELTMPYSVIRGEAFTLKATVLNYLPKCIRVSVQLEASPAFLAVPVEKEQAPHCICANGRQTVSWAVTPKSLGNVNFTVSAEALESQELCGTEVPSVPEHGRKDTVIKPLLVEPEGLEKETTFNSLLCPSGGEVSEELSLKLPPNVVEESARASVSVLGDILGSAMQNTQNLLQMPYGCGEQNMVLFAPNIYVLDYLNETQQLTPEIKSKAIGYLNTGYQRQLNYKHYDGSYSTFGERYGRNQGNTWLTAFVLKTFAQARAYIFIDEAHITQALIWLSQRQKDNGCFRSSGSLLNNAIKGGVEDEVTLSAYITIALLEIPLTVTHPVVRNALFCLESAWKTAQEGDHGSHVYTKALLAYAFALAGNQDKRKEVLKSLNEEAVKKDNSVHWERPQKPKAPVGHFYEPQAPSAEVEMTSYVLLAYLTAQPAPTSEDLTSATNIVKWITKQQNAQGGFSSTQDTVVALHALSKYGAATFTRTGKAAQVTIQSSGTFSSKFQVDNNNRLLLQQVSLPELPGEYSMKVTGEGCVYLQTSLKYNILPEKEEFPFALGVQTLPQTCDEPKAHTSFQISLSVSYTGSRSASNMAIVDVKMVSGFIPLKPTVKMLERSNHVSRTEVSSNHVLIYLDKVSNQTLSLFFTVLQDVPVRDLKPAIVKVYDYYETDEFAIAEYNAPCSKDLGNADYKDDDDKGASHHHHHH
